From PMC6125214 (Cancer immunology research, 2018)
Each block holds one binder with its values, some of them ahead of it.

Tests used:
human Siglec-6-Fc = human Siglec-6-Fc (Homo sapiens, UniProt O43699); test: SPR
human CD22-Fc = human CD22-Fc (Homo sapiens, UniProt P20273); test: ELISA
human CD33-Fc = human CD33-Fc (Homo sapiens, UniProt P20138); test: ELISA
human Siglec-8-Fc = human Siglec-8-Fc (Homo sapiens, UniProt Q9NYZ4); test: ELISA
Sequence of human Siglec-8-Fc (Q9NYZ4 17-363): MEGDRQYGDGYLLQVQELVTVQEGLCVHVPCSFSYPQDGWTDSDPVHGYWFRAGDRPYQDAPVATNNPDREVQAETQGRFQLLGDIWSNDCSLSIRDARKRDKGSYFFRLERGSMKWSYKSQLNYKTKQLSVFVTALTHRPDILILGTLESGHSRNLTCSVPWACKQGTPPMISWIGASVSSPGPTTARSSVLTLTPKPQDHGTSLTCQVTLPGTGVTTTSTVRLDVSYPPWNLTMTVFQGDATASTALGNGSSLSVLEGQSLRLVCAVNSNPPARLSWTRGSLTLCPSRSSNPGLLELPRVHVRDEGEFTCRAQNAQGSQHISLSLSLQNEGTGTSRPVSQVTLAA

Sequence of human CD22-Fc (P20273 20-687): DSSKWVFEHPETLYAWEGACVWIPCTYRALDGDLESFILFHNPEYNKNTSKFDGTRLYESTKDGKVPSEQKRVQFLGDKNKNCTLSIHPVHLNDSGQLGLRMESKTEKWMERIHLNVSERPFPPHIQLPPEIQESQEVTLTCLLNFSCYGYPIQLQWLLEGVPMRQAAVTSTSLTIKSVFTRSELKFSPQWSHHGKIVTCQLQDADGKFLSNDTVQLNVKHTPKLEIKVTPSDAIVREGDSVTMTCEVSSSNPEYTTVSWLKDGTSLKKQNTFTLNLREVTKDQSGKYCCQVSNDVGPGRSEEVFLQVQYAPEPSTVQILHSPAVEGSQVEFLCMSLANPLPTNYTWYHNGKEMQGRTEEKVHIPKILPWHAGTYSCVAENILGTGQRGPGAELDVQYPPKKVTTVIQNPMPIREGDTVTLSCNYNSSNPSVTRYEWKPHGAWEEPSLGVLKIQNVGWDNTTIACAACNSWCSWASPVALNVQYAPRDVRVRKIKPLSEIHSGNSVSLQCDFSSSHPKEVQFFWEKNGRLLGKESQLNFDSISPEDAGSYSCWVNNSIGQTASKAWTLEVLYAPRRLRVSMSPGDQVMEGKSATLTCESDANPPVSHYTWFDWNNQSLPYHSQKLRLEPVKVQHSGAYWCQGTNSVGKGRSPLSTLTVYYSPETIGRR
Sequence of human Siglec-6-Fc (O43699 27-347): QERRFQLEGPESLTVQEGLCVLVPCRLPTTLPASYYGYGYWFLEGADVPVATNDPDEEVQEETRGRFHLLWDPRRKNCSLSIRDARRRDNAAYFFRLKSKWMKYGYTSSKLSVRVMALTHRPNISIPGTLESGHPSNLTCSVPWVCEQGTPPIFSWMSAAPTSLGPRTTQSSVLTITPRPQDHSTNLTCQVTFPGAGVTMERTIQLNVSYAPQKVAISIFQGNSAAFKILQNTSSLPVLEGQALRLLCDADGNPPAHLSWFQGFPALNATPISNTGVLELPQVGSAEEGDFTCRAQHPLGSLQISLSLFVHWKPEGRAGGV
Sequence of human CD33-Fc (P20138 18-259): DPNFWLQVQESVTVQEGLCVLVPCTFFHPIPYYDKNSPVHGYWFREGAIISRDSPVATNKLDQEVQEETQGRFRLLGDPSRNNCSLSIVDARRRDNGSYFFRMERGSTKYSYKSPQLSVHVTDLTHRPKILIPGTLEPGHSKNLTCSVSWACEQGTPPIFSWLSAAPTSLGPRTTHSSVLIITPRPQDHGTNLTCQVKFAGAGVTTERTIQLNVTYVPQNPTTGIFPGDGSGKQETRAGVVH

Kd (human Siglec-6-Fc): 2.8 nM
B1: JML-1 Fab (Fab, V domains shown)
VH: KVQLLESGGGLVQPGRSLRLSCAASGFTFDDYGMHWVRQAPGKGLEWVSGISWNSGSIGYADSVKGRFTISRDNSKNTLYLQMNSLRAEDTAVYYCARGGQTIDIWGQGTMVTVSS
VL: not shown

binding result (human CD22-Fc): no binding (tested: 1 μg/mL)
binding result (human CD33-Fc): no binding (tested: 1 μg/mL)
binding result (human Siglec-8-Fc): no binding (tested: 1 μg/mL)
B2: JML-1 IgG1 (antibody, V domains shown)
VH: B1 VH
VL: not shown
